Values quoted from earlier work in article PMC6691274 (Molecular Medicine Reports, 2019).
Read-outs that look alike come from different tables or passages of the source. Blank lines part the entries; values can stand above or below the substance they belong to.

Key:
[1] = tested on: dipeptidyl-peptidase-IV (DPP-IV)
GLP-1R = biological target: T1, GLP-1R (Rattus norvegicus, UniProt P32301); conditions: INS-1 rat insulinoma xenograft model and rat MI/R model
T1 sequence (P32301 22-463): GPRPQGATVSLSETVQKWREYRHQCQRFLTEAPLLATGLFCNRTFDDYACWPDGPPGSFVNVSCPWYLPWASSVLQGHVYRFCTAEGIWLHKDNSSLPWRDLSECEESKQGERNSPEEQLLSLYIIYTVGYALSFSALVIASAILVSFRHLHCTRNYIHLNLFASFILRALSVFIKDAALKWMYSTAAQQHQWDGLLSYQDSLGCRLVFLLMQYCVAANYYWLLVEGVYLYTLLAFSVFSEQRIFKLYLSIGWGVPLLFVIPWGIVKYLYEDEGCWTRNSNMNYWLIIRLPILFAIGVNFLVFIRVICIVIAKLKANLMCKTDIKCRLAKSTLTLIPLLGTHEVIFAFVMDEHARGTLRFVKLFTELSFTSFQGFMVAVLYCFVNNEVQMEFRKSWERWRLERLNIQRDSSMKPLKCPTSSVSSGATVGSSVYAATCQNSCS

Substance: Exendin-4: an analog of GLP-1 with 53% amino acid homology, resistant to DPP-IV
Stability towards DPP-IV [1]: resistant

Substance: GLP-1: 30-amino-acid-long gut hormone secreted from intestinal endocrine L-cells
Stability towards DPP-IV ([1]; upon being released into the blood): rapidly degraded

Affinity with GLP-1R (GLP-1R): high affinity
Substance: ^18F-4-fluorobenzamido-N-ethylamino-maleimide (FBEM)-Cys^40-exendin-4 [^18F-FBEM-Cys^40-exendin-4]
